These results are taken from the supplement of paper PMC9112550, “Optimization of the antimicrobial peptide Bac7 by deep mutational scanning” (BMC Biology, 2022).

This series concerns Escherichia coli TOP10. Briefly: shrunken log2 fold change of peptide-encoding DNA abundance (4.5 h post-induction vs induction); higher = less antimicrobial activity (less host growth inhibition). The settings on record: time post-induction: 4.5 h; library: site-saturation at positions 5, 18, 19, 20.
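Note: peptides expressed intracellularly from a pBAD plasmid library in pooled LB shake-flask culture, induced with 0.3% L-arabinose, DNA abundance read by NGS, three biological replicates, DESeq2 with apeglm shrinkage.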

As for RRIRCRPPRLPRPRPRPWNAPRP, the “shrunken log2 fold change” value was -0.129. As for RRIRKRPPRLPRPRPRPHEDPRP, the “shrunken log2 fold change” value is 0.139.

For RRIRLRPPRLPRPRPRPWQAPRP, the “shrunken log2 fold change” value was found to be 0.226. Take RRIRFRPPRLPRPRPRPIACPRP: the “shrunken log2 fold change” value was -0.0937. To RRIRCRPPRLPRPRPRPIWLPRP belongs 0.122; to RRIRSRPPRLPRPRPRPRAFPRP, 0.304. On to RRIRKRPPRLPRPRPRPGAQPRP, for which the “shrunken log2 fold change” value stood at 0.496. To RRIRIRPPRLPRPRPRPFPAPRP belongs -0.299; to RRIRDRPPRLPRPRPRPADQPRP, 0.553. As to RRIRARPPRLPRPRPRPFIKPRP, the “shrunken log2 fold change” value is -0.529.

Consider RRIRDRPPRLPRPRPRPLRKPRP, for which the “shrunken log2 fold change” value amounted to 1.36. To RRIRRRPPRLPRPRPRPLHQPRP belongs 0.32. To RRIRGRPPRLPRPRPRPMYEPRP belongs 0.282; to RRIRFRPPRLPRPRPRPSYAPRP, -0.116. To RRIRKRPPRLPRPRPRPTLPPRP belongs 0.878; to RRIRIRPPRLPRPRPRPCTIPRP, -0.25. Regarding RRIRMRPPRLPRPRPRPLLHPRP, the “shrunken log2 fold change” value amounted to 0.228. RRIRARPPRLPRPRPRPSFCPRP: the “shrunken log2 fold change” value is 0.167. RRIRTRPPRLPRPRPRPTSCPRP: the “shrunken log2 fold change” value came out at 0.104. To RRIRARPPRLPRPRPRPEHCPRP belongs 0.0263; to RRIRWRPPRLPRPRPRPYSKPRP, -0.492; to RRIRYRPPRLPRPRPRPDARPRP, -0.294. RRIRGRPPRLPRPRPRPARDPRP: the “shrunken log2 fold change” value came to 0.585. To RRIRQRPPRLPRPRPRPMKRPRP belongs -0.111; to RRIRNRPPRLPRPRPRPAGKPRP, -0.0122; to RRIRDRPPRLPRPRPRPHISPRP, -0.0535. In the case of RRIRARPPRLPRPRPRPCDMPRP, the “shrunken log2 fold change” value was 0.208.

On to RRIRMRPPRLPRPRPRPDTCPRP, for which the “shrunken log2 fold change” value amounted to 1.25. As to RRIRDRPPRLPRPRPRPQCMPRP, the “shrunken log2 fold change” value is -0.0894. Consider RRIRLRPPRLPRPRPRPPKGPRP, for which the “shrunken log2 fold change” value is 0.306. For RRIRARPPRLPRPRPRPRAAPRP, the “shrunken log2 fold change” value was 0.826. Regarding RRIRFRPPRLPRPRPRPQFPPRP, the “shrunken log2 fold change” value is -0.16. Consider RRIRYRPPRLPRPRPRPISQPRP, for which the “shrunken log2 fold change” value is -0.299.

For RRIRQRPPRLPRPRPRPNSTPRP, the “shrunken log2 fold change” value is -0.642. On to RRIRLRPPRLPRPRPRPSGSPRP, for which the “shrunken log2 fold change” value amounted to 0.182. To RRIRVRPPRLPRPRPRPNHNPRP belongs -0.638. To RRIRARPPRLPRPRPRPWPDPRP belongs 0.17. As for RRIRDRPPRLPRPRPRPVRWPRP, the “shrunken log2 fold change” value was 1.2.

Regarding RRIRSRPPRLPRPRPRPHDLPRP, the “shrunken log2 fold change” value stood at 0.0653. To RRIRFRPPRLPRPRPRPTRTPRP belongs 0.326; to RRIRWRPPRLPRPRPRPPNRPRP, 0.148. To RRIRPRPPRLPRPRPRPGMCPRP belongs -0.0873. To RRIRNRPPRLPRPRPRPSCGPRP belongs -0.178; to RRIRIRPPRLPRPRPRPQMAPRP, -0.064. As for RRIRSRPPRLPRPRPRPESSPRP, the “shrunken log2 fold change” value stood at 0.00287. To RRIRIRPPRLPRPRPRPNAVPRP belongs -0.266. To RRIRIRPPRLPRPRPRPVPVPRP belongs 0.0789. Take RRIRYRPPRLPRPRPRPPYQPRP: the “shrunken log2 fold change” value is -0.369.

Regarding RRIRGRPPRLPRPRPRPLSYPRP, the “shrunken log2 fold change” value was found to be 0.00315. RRIRARPPRLPRPRPRPCHYPRP: the “shrunken log2 fold change” value is -0.00197. To RRIRARPPRLPRPRPRPMEVPRP belongs -0.0122; to RRIRMRPPRLPRPRPRPETDPRP, 1.77. To RRIRERPPRLPRPRPRPWGVPRP belongs -0.284. To RRIRPRPPRLPRPRPRPRMWPRP belongs 0.413.

With RRIRARPPRLPRPRPRPEYSPRP, the “shrunken log2 fold change” value turned out to be 0.0132. To RRIRFRPPRLPRPRPRPFPQPRP belongs -0.173.

On to RRIRIRPPRLPRPRPRPQYPPRP, for which the “shrunken log2 fold change” value was -0.32. Turning to RRIRLRPPRLPRPRPRPSPMPRP, the “shrunken log2 fold change” value was -0.107.

Take RRIRARPPRLPRPRPRPNKKPRP: the “shrunken log2 fold change” value was -0.00857. For RRIRPRPPRLPRPRPRPKQMPRP, the “shrunken log2 fold change” value came to 0.268. To RRIRERPPRLPRPRPRPQIMPRP belongs -0.398.

For RRIRHRPPRLPRPRPRPMAEPRP, the “shrunken log2 fold change” value was -0.165. To RRIRARPPRLPRPRPRPYPEPRP belongs -0.181. With RRIRMRPPRLPRPRPRPDFSPRP, the “shrunken log2 fold change” value came out at 0.0199. To RRIRGRPPRLPRPRPRPKNCPRP belongs -0.111; to RRIRKRPPRLPRPRPRPFHKPRP, -0.00277; to RRIRRRPPRLPRPRPRPNFMPRP, 0.142. To RRIRHRPPRLPRPRPRPPFEPRP belongs 0.161; to RRIRWRPPRLPRPRPRPQGRPRP, 0.64; to RRIRSRPPRLPRPRPRPHYRPRP, 0.0349. As for RRIRTRPPRLPRPRPRPESMPRP, the “shrunken log2 fold change” value came to 0.0954.

On to RRIRHRPPRLPRPRPRPLTCPRP, for which the “shrunken log2 fold change” value is -0.0216.

RRIRNRPPRLPRPRPRPFLCPRP: the “shrunken log2 fold change” value is -0.966.

As to RRIRDRPPRLPRPRPRPNYAPRP, the “shrunken log2 fold change” value is -0.457. For the sequence RRIRVRPPRLPRPRPRPLHDPRP, the “shrunken log2 fold change” value is -0.41. On to RRIRFRPPRLPRPRPRPWQRPRP, for which the “shrunken log2 fold change” value is -0.0586. Consider RRIRFRPPRLPRPRPRPLKHPRP, for which the “shrunken log2 fold change” value was -0.475.

For the sequence RRIRIRPPRLPRPRPRPISYPRP, the “shrunken log2 fold change” value is -0.197. In the case of RRIRIRPPRLPRPRPRPQKAPRP, the “shrunken log2 fold change” value came out at 0.0173. To RRIRGRPPRLPRPRPRPYAIPRP belongs -0.0622; to RRIRDRPPRLPRPRPRPIPCPRP, -0.0802; to RRIRDRPPRLPRPRPRPLIWPRP, 0.176.

As to RRIRWRPPRLPRPRPRPGKIPRP, the “shrunken log2 fold change” value is 0.159.

On to RRIRHRPPRLPRPRPRPHGCPRP, for which the “shrunken log2 fold change” value is -0.0438. To RRIRLRPPRLPRPRPRPQIKPRP belongs -0.187; to RRIRVRPPRLPRPRPRPIQQPRP, 0.00847; to RRIRTRPPRLPRPRPRPGFPPRP, -0.0413. For RRIRNRPPRLPRPRPRPREPPRP, the “shrunken log2 fold change” value came out at 0.697. To RRIRGRPPRLPRPRPRPSPLPRP belongs 0.539; to RRIRLRPPRLPRPRPRPHKRPRP, 0.0273; to RRIRLRPPRLPRPRPRPLIEPRP, 0.0414.
